# Values joined by “and” are separate entries in the source; they are usually repeats but may differ in a detail not shown here. Equal values may be shown once.
# B1: murine M-CSFWT: wild-type murine M-CSF, positive control in cross-linking (protein)
# chain: KEVSEHCSHMIGNGHLKVLQQLIDSQMETSCQIAFEFVDQEQLDDPVCYLKKAFFLVQDIIDETMRFKDNTPNANATERLQELSNNLNSCFTKDYEEQNKACVRTFHETPLQLLEKIKNFFNETKNLLEKDWNIFTKNCNNSFAKCSSRDVVTKPDCNCLYPKATPSSDPASASPHQPPAPSMAPLAGLAWDDSQRTEGSSLLPSELPLRIEDPGSAKQRPPR
# B2: M-CSF: native monocyte/macrophage colony stimulating factor, natural ligand of c-FMS (Uniprot P09603) (protein, UniProt P09603 33-554, looked up)
# Macrophage colony-stimulating …: EEVSEYCSHMIGSGHLQSLQRLIDSQMETSCQITFEFVDQEQLKDPVCYLKKAFLLVQDIMEDTMRFRDNTPNAIAIVQLQELSLRLKSCFTKDYEEHDKACVRTFYETPLQLLEKVKNVFNETKNLLDKDWNIFSKNCNNSFAECSSQDVVTKPDCNCLYPKAIPSSDPASVSPHQPLAPSMAPVAGLTWEDSEGTEGSSLLPGEQPLHTVDPGSAKQRPPRSTCQSFEPPETPVVKDSTIGGSPQPRPSVGAFNPGMEDILDSAMGTNWVPEEASGEASEIPVPQGTELSPSRPGGGSMQTEPARPSNFLSASSPLPASAKGQQPADVTGTALPRVGPVRPTGQDWNHTPQKTDHPSALLRDPPEPGSPRISSLRPQGLSNPSTLSAQPQLSRSHSSGSVLPLGELEGRRSTRDRRSPAEPEGGPASEGAARPLPRFNSVPLTDTGHERQSEGSFSPQLQESVFHLLVPSVILVLLAVGGLLFYRWRRRSHQEPQRADSPLEQPEGSPLTQDDRQVELPV
# B3: M-CSFαvβ3: variant 4.22 with histidine to alanine mutations at positions 9 and 15; binds αvβ3 integrin but not c-FMS (protein)
# chain: EEVSEYCSAMIGSGALQSLQRLIDQTSRGDSPSITFEFVDQEQLKDPVCYLKKAFLLVQDIMEDTMRFRDNTPNAIAIVQLQELSLRLKSCFTKDYEEHDKACVRTFYETPLQLLEKVKNVFNETKNLLDKDWNIFSKNCNNSFAECSSQGHERQSEGS
# modifications: left off: small tags and cut ends
# How the values were obtained:
# [1] = tested on: CTX-I (carboxy-terminal collagen crosslinks); assay: CTX-I serum ELISA in ovariectomized mice (bone resorption); assay type: in vivo, C57 Rcc mice; parameters: CTX-I serum-concentration: unit not given here; settings: 0.1 mg/kg
# Procedure: In order to assess the effect of M-CSF variant on bone resorption, 10 weeks old C57 Rcc mice were ovariectomized resulting in a decrease in estrogen secretion similar to what occurs in osteoporosis. Two weeks post-surgery the mice were treated with M-CSF5.6 variant in three concentrations-0.1 mg/kg, 0.5 mg/kg and 15 mg/kg, in order to test the effect on bone resorption and to find the optimal dosage. For a period of 4 days, 0.1 and 0.5 mg/kg M-CSF5.6 treated mice received subcutaneous injections twice a day, while 15 mg/kg M-CSF5.6 treated mice received a daily subcutaneous injection. Mice were sacrificed 18-24 hours after the final injection. The amounts of type I collagen fragments in the blood were measured using CTX-I (carboxy-terminal collagen crosslinks) ELISA.
# Animals were randomly divided into 2 control groups (SHAM, PBS) and 4 treatment groups (0.1, 0.5 and 15 mg/kg M-CSF5.6 and 0.1 mg/kg Alendronate as positive control). Except for the SHAM group, all animals were ovariectomized. *, ^, + represent a Haemolytic-serum sample, an unsuccessful ovariectomy procedure (as determined post mortem) and an outlier, respectively. CTX-I serum-concentration values of mice with unsuccessful ovariectomy were excluded from the analysis.
# αvβ3 integrin = αvβ3 integrin (Homo sapiens, UniProt P05106+P06756); settings: natural ligand and inhibitor; read-out: binding affinities of αvβ3 integrin; cited from earlier work
# Sequence of αvβ3 integrin (P06756 31-1048): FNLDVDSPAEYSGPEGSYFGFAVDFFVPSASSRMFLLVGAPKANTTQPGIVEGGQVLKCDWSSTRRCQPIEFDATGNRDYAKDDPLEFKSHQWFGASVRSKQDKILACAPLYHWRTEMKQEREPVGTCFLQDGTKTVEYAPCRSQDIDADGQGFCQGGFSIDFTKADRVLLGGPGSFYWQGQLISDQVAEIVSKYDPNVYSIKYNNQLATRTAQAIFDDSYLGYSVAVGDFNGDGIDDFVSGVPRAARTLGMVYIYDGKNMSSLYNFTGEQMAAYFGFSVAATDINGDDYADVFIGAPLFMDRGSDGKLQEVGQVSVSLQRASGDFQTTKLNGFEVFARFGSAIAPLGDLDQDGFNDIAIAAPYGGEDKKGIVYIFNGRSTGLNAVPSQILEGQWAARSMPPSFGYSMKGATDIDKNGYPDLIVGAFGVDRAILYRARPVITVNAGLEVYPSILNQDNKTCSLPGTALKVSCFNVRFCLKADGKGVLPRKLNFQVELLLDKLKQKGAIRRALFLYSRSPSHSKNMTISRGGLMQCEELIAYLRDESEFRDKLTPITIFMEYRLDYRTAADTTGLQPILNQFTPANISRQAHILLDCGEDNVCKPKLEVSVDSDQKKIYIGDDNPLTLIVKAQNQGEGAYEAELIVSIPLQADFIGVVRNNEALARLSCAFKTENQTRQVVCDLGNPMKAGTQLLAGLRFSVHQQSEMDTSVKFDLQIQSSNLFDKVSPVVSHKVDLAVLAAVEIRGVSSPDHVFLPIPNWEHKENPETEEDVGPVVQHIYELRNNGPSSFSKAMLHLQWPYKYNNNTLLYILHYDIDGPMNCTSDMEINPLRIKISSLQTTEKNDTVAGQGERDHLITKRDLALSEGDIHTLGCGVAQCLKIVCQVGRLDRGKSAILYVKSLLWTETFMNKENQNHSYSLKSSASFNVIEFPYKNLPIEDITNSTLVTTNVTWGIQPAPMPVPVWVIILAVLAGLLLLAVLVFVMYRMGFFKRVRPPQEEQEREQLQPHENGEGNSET
# Sequence of αvβ3 integrin (P05106 27-788): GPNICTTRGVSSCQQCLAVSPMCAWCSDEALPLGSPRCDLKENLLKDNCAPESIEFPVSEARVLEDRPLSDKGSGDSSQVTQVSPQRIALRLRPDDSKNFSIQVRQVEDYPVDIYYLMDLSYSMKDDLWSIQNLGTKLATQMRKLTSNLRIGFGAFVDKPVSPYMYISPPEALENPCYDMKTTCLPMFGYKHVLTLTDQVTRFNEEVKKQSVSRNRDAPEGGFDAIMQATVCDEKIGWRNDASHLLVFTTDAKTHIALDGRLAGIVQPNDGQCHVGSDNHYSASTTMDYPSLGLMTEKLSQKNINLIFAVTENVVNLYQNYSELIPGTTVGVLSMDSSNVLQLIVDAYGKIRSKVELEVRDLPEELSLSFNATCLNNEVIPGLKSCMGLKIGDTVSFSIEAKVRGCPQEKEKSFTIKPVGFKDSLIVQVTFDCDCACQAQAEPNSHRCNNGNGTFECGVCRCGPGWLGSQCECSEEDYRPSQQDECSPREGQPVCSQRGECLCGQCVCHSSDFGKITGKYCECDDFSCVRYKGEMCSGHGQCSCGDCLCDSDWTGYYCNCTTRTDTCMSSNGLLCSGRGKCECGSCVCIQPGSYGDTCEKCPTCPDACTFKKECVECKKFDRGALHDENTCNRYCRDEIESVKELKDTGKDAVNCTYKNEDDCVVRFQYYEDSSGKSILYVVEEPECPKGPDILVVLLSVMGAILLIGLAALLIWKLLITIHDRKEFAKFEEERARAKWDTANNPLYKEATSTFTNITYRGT
# [2] = BS^3 chemical cross linking / SDS-PAGE dimerization assay; assay type: physicochemical
# Procedure: Then, Tris was added to a final concentration of 30 mM and the mixture was incubated for 15 min at room temperature. Samples were denaturized and loaded on 15% SDS-PAGE. The gels were stained with coomassie blue (InstantBlue, Expedeon, CA, USA) and visualized with MiniBis pro (DNR Bio-Imaging Systems, Jerusalem, Israel).
# BS^3 crosslinking assay—Human (4 μg) and murine M-CSFWT (1 μg), M-CSFC31S (1 μg) and M-CSFC31S,M27R (2.5 μg) were incubated with different concentrations of BS^3 [bis(sulfosuccinimidyl)suberate] (ThermoFisher Scientific, MA, USA) cross linker (0, 25 μM, 100 μM, 250 μM, 500 μM, 1000 μM and 2500 μM) for 30 min at room temperature. Then, […] was added to a final concentration of 30 mM, and the mixture was incubated for 15 min at room temperature. Samples were denaturized with sample buffer, boiled, and loaded on 15% SDS-PAGE for protein separation. The gels were stained with InstantBlue staining (Expedeon, CA, USA) for 40 min, followed by two washing steps with double distilled water. The gels were visualized with MiniBis pro (DNR Bio-Imaging Systems, Jerusalem, Israel).
# Experiments were conducted in order to verify that the purified variants are incapable of dimerizing. The purified variants were incubated with a cross linker reagent (BS^3 [bis(sulfosuccinimidyl)suberate]) to enhance and visualize non-covalent intermolecular interactions. Following incubation, the reactions were stopped and the samples were loaded in denaturized conditions on a protein gel.
# To validate the structural and computational analysis and to verify that M-CSFC31S,M27R is indeed a monomer, several biophysical assays were conducted. First, purified murine and human M-CSFWT, M-CSFC31S and M-CSFC31S,M27R were crosslinked via lysine residues using different amounts of BS^3 reagent [bis(sulfosuccinimidyl)suberate], and the proteins sizes were evaluated using SDS-PAGE (FIG. 16A). Murine M-CSFWT served as positive control, since it has a lysine in the dimerization site (K68), which facilitates the intermolecular cross-linking of the two monomers in the dimer. […] The dimer band became more prominent at higher BS^3 concentrations. It is likely that the non-covalent dimerization allows other lysines in M-CSFC31S to come into close proximity and crosslink.
# human c-FMS = human c-FMS (Homo sapiens, UniProt P07333); settings: previously disclosed (Elegheert et al. 2012); read-out: KD of M-CSF to c-FMS receptor; cited from earlier work
# Sequence of human c-FMS (P07333 20-972): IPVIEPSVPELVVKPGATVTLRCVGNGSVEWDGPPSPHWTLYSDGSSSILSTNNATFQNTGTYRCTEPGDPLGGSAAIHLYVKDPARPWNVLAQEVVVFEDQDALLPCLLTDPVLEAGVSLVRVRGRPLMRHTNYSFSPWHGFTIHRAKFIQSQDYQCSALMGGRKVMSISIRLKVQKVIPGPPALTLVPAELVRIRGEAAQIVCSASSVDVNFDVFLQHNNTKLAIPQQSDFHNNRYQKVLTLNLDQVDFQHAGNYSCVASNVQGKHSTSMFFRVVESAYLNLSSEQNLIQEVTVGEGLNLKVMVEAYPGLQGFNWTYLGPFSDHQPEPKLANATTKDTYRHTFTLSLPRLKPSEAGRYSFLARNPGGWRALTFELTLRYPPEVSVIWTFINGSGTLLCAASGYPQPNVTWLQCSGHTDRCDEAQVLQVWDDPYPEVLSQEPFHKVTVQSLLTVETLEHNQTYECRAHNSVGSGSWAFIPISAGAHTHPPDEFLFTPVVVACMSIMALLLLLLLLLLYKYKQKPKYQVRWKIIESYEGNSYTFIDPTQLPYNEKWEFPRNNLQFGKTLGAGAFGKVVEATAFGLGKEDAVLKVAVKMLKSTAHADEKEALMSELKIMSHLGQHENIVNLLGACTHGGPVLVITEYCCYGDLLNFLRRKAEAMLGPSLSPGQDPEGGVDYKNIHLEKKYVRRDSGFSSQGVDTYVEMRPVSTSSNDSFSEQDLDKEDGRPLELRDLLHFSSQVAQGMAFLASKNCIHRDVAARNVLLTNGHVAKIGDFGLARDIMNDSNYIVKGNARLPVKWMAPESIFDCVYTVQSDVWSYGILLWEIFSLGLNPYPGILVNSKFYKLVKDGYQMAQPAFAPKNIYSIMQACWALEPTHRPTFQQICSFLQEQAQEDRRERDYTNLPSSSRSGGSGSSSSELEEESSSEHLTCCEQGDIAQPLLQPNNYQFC
# mature osteoclasts = assay: Actin ring formation in mature osteoclasts; assay type: cell-based, mouse; settings: inhibitors 5 μM added to mature osteoclasts for 24 h; F-actin staining
# Procedure: FIG. 23 are example pictures showing Actin ring formation in mature osteoclasts incubated with M-CSFRGD variants. Murine BMMs were allowed to differentiate into osteoclasts in the presence of M-CSF and RANKL for 72 h. Then, the cells were incubated for additional 24 h without (positive control) or with inhibitors (5 μM) followed by fixation and staining for F-actin and nuclei. Cells were able to form a solid actin ring (white arrowheads), scattered actin ring (white arrows) or amorphous actin distribution (barbed arrowheads). Pictures are representatives of 35 images acquired from five different wells per sample.
# For a mature osteoclast to resorb bone properly, it must form unique structure termed “sealing zone”; this structure consists of an actin ring made from a dense actin mesh connected by adhesion complexes called podosomes. The formation of the actin ring involves several stages: at the beginning, podosomes are formed throughout the cell in a scattered manner, then groups of podosomes form small actin structures named belts and upon osteoclast maturation, the belts are moving to the cell periphery, cluster, and form the actin ring. Podosomes contain high levels of αvβ3 integrin which is essential for the formation of a proper actin ring with condensed podosome network. […]
molecule,measurement,setting,value
"NCCCC(O)(P(=O)(O)O)P(=O)(O)O [Alendronate, reference compound]",change in CTX-I levels compared to the PBS treated animals,[1],significant decrease in CTX-I levels
same,CTX-I serum-concentration,"[1]; individual animals n 1-6, * haemolytic sample",25.4 and 20.03* and 18.21* and 27.86* and 19.1 and 20.9
vitronectin: one of the ligands of αvβ3 integrin,Kd,αvβ3 integrin,40.7 nM
cRGDfV [reference compound],Kd,αvβ3 integrin,158 nM
B1,monomer/dimer bands after BS^3 cross linking,"[2]; Example 11, BS^3 0-2500 μM, SDS-PAGE, FIG. 16A",almost entirely in a band with a molecular weight that fits the dimer size
B2,Kd,human c-FMS,13.6 nM
B3,actin ring formation,mature osteoclasts,decreased the condensation and density of podosomes
same,dimerization after BS^3 cross linking,"[2]; Example 4, BS^3 up to 2500 μM, FIG. 8",did not show any dimerization

# — patent US11976099B2, “Compositions and methods for treatment of bone associated diseases” (THE NATIONAL INSTITUTE FOR BIOTECHNOLOGY IN THE NEGEV LTD., priority 2016, dated 2024)
